The target in test [1] is human insulin receptor subtype B (hIR-B) containing a C-terminal C9 tag (human) (UniProt P06213). Briefly: cell-based or functional assay.
Test [2] addresses human insulin receptor subtype A (hIR-A) (human) (UniProt P06213). In words: cell-based or functional assay.
In test [3] the target is human insulin receptor subtype B (hIR-B) containing a C-terminal C9 tag (human) (UniProt P06213). In words: SPA competitive radioligand binding, hIR-B membranes, 0.1% BSA.
The target is the same in test [4]. In words: SPA competitive radioligand binding, hIR-B membranes, 0.1% HSA.
For test [5] the target is unchanged. Briefly: SPA competitive radioligand binding, hIR-B membranes, 0.001% NP-40.

Substance “Example 1 (A14E, B16H, B25H, desB30 human insulin acylated at Lys B29 with HO2C-(CH2)18-CO-γGlu-γGlu-γGlu-Lys-Gly-) (ligand)” came in with a receptor tyrosine auto-phosphorylation in HEK293 cells, ELISA, EC50, 0.1% BSA in test [1] of 1560 nM. In test [2], this substance gave a receptor tyrosine auto-phosphorylation in HEK293 cells, ELISA, EC50, 0.1% BSA of 2550 nM and a receptor tyrosine auto-phosphorylation in HEK293 cells, ELISA, EC50, 0.1% Casein of 588 nM.
The corresponding values for “Example 2 (A14E, B16H, B25H, desB30 human insulin acylated at Lys B29 with HO2C-(CH2)18-CO-γGlu-γGlu-γGlu-Lys-(2-[2-(2-aminoethoxy)ethoxy]acetic acid)-) (ligand)” are 1790 nM, 3040 nM and 478 nM.
Take “Example 3 (A14E, B16H, B25H, desB30 human insulin acylated at Lys B29 with HO2C-(CH2)18-CO-γGlu-γGlu-γGlu-εLys-Gly-) (ligand)”: in test [1], the receptor tyrosine auto-phosphorylation in HEK293 cells, ELISA, EC50, 0.1% BSA stood at 1220 nM and the receptor tyrosine auto-phosphorylation in HEK293 cells, ELISA, EC50, 0.1% Casein amounted to 183 nM. For the same substance, in test [2], the receptor tyrosine auto-phosphorylation in HEK293 cells, ELISA, EC50, 0.1% BSA amounted to 3180 nM and the receptor tyrosine auto-phosphorylation in HEK293 cells, ELISA, EC50, 0.1% Casein turned out to be 627 nM.
In the case of “insulin-like growth factor 1 (IGF-1) (from UniProt P05019 49-118) (ligand)”, the Ki in test [3] worked out at 67.3 nM; in test [4], 54.3 nM; in test [5] it was 86.1 nM. The receptor tyrosine auto-phosphorylation in HEK293 cells, ELISA, EC50, 0.1% BSA in test [1] was 771 nM. In test [1], this substance yielded a receptor tyrosine auto-phosphorylation in HEK293 cells, ELISA, EC50, 0.1% Casein of 577 nM.

For the origin of these results see patent US20230174609A1, “EXTENDED TIME ACTION ACYLATED INSULIN COMPOUNDS” (Eli Lilly and Company, priority 2020, published 2023).
